We go through eleven molecules from US20070134236A1 (Biogen, published 2007).

Numbering of substitutions follows the chain as printed.

B1: Fab fragment of chimeric 11K2 (Fab, V domains shown)
VH: EVQLQQSGAELVKAGASVKLSCPASGLNIKDTYMHWVKQRPEQGLEWIGRIDPANGNTKFDPKFQGKATITADTSSNTAYLQLSSLTSEDTAVYYCARGVFGFFDYWGQGTTLTVSS
VL: DIQMTQSSSSFSVSLGDRVTITCKATEDIYNRLAWYQQKPGSAPRLLISGATSLETGVPSRFSGSGSGKDYTLSITSLQTEDVATYYCQQFWSAPYTFGGGTKLEIKR
notes: also called Ch11K2
B2: Fab fragment of humanized 11K2 H1L1 (Fab, V domains shown)
VH: QVQLVQSGAEVKKPGSSVKVSCKASGLNIKDTYMHWVRQAPGQGLEWIGRIDPANGNTKFDPKFQGRATITADTSTSTAYMELSSLRSEDTAVYYCARGVFGFFDYWGQGTTVTVSS
VL: DIQMTQSPSSLSASVGDRVTITCKATEDIYNRLAWYQQKPGKAPKLLISGATSLETGVPSRFSGSGSGKDYTLTISSLQPEDFATYYCQQFWSAPYTFGGGTKVEIKR
B3: Fab fragment of humanized 11K2 H2L1 (Fab, V domains shown)
VH: B2 VH with N28T, K30S, I48M, A68V
VL: B2 VL
B4: Fab fragment of humanized 11K2 H2L2 (Fab, V domains shown)
VH: B2 VH with N28T, K30S, I48M, A68V
VL: B2 VL with K69T
B5: Fab fragment of humanized 11K2 H1L2 (Fab, V domains shown)
VH: B2 VH
VL: B2 VL with K69T
B6: humanized 11K2 H1-L2 (antibody, human IgG1, V domains shown)
VH: B2 VH
VL: B2 VL with K69T
notes: human IgG1 kappa
B7: monoclonal antibody 5A13 (antibody, mouse IgG1, V domains shown)
VH: B1 VH
VL: DIQMTQSSSSFSVSLGDRVTITCKATEDIYNRLAWYQQKPGSAPRLLISGATSLETGVPSRFSGSGSGKDYTLSITSLQTEDVATYYCQQFWSAPYTFGGGTKLEIK
notes: mouse IgG1; also called 5A13.1
B8: monoclonal antibody 4N4 (antibody, mouse IgG1, V domains shown)
VH: B1 VH
VL: B7 VL
notes: mouse IgG1; also called 4N4.1
B9: monoclonal antibody 6I5 (antibody, mouse IgG1, V domains shown)
VH: B1 VH
VL: B7 VL
notes: mouse IgG1; also called 6I5.1; 615
B10: monoclonal antibody 7H1 (antibody, mouse IgG1, V domains shown)
VH: B1 VH
VL: B7 VL
notes: mouse IgG1; also called 7H1.1
B11: monoclonal antibody 6D21 (antibody, mouse IgG1, V domains shown)
VH: B1 VH
VL: B7 VL
notes: mouse IgG1; also called 6D21.1

The target in one test is T1, human MCP-2 (human, UniProt P80075 24-99).
T1 construct: also called hMCP-2; huMCP-2
T1 sequence (looked up): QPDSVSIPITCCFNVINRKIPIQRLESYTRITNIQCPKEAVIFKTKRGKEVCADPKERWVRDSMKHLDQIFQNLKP
Description: KinExA, in solution, Fab. As for the experimental part:
(§1) 1 ml of MCP-1 at a concentration of 10 μg/ml in NaHCO₃ was added to an amount of beads equivalent to 1 ml of the original slurry. The beads were rocked overnight at 4° C. Beads were spun down and washed once with 1M Tris, pH 8.0, then resuspended in 1M Tris pH 8.0 with 1% BSA, 0.02% azide. The beads were rocked at room temperature for one hour then stored at 4° C. in this buffer for the duration of the experiments.
(§2) The KinExA 3000 measures protein-protein interaction in solution, and is ideally suited for measuring affinities of antibodies to antigens. In the typical experiment, antigen (MCP) is immobilized on a bead, antibody is flowed over a column of these beads at a given concentration, and the antibody that binds to the beads is detected using a fluorescent secondary. Antibody at a fixed concentration is then incubated with different concentrations of antigen in solution and the amount of free antibody is measured by flowing the mixture over the bead column quickly enough that no re-equilibration occurs between solution and solid phase. The amount of antibody remaining free is plotted against the concentration of antigen added and the data are fit to a quadratic equation to determine the affinity of the interaction in solution.
(§3) In these experiments, the only difference to the typical experiment described above is that instead of using intact antibody, a Fab fragment of 11K2 was used. Earlier KimExA experiments using the intact murine 11K2 mAb binding to MCP-1 and MCP-2 gave biphasic curves that the software could not interpret. This may be due to these proteins acting as dimers, so to eliminate the dimer/dimer interaction we generated Fab fragments. The binding of the 11K2 Fab fragments to MCP-1 and MCP-2 produced curves that the KinExA software could fit.
On the technique in general: Kinetic exclusion samples the free partner from a solution-phase mixture.
A word on the Kd: it is the equilibrium constant for the complex coming apart. For B1, the Kd was determined as 0.226 nM.
In the case of B2, the Kd was found to be 0.725 nM.
Take B3: the Kd was 0.94 nM.
As for B4, the Kd is 3.2 nM.
Take B5: the equilibrium dissociation constant (Kd) was determined as 0.712 nM.

For the next test, the target named is T2, human MCP-1 (human, UniProt P13500 24-99).
T2 construct: also called hMCP-1; huMCP-1
Kind of test: KinExA, in solution, Fab. On the procedure:
as §1, §2, §3
As for B1, the Kd came to 0.0196 nM.
Regarding B2, the Kd was determined as 0.0364 nM.
Take B3: the Kd was determined as 0.064 nM.
Turning to B4, the Kd was determined as 0.0775 nM.
Take B5: the Kd worked out at 0.0623 nM.

The next test deals with T3, human MCP-3 (human, UniProt P80098 24-99).
T3 construct: also called hMCP-3
Kind of test: ELISA. (In general: In an ELISA, binding on a coated surface is turned into a signal by an enzyme label.)
For B6, the binding result is recorded as “no binding”.

The target of a further test is T1, human MCP-2. Kind of test: ELISA on immobilised MCP-2, absorbance 450 nm.
In general, EC50 (read off the curve) refers to the midpoint of the concentration-response curve. As for B6, the “EC50 (read off the curve)” value was approximately 0.3 mg/L.

For a further test, the target named is T2, human MCP-1. Kind of test: ELISA on plate-coated human MCP-1, anti-human IgG-HRP; y axis unlabelled, OD 405 nm per paragraph 382. On the procedure:
Binding specificities of chimeric 11K2 and the four versions of humanized 11K2 (H1-L1, H1-L2, H2-L1, and H2-L2) were determined by ELISA, according to the protocol described in Example 1.
ELISA plates (Corning, Inc. Cat#3369) were coated with 50 ng MCP-1 per well overnight at 4° C. Plates were washed then blocked with PBS/5% milk for 1.5 hrs at 25° C. Another wash was followed by incubation with the 11K2 mAbs (or 3G9 isotype control) at the concentrations indicated for 1 hr at 25° C. After washing, the plates were incubated with secondary antibody (anti-human IgG-HRP, Jackson Immunoresearch Cat#109-036-088) for 1 hr at 25° C. Plates were then washed and developed using the ABTS Peroxidase Substrate Kit (Vector Laboratories Cat#SK-4500). OD (405 nm) values were plotted as a function of 11K2 mAb concentration.
Regarding B6, the “EC50 (read off the curve)” value is approximately 0.02 mg/L.

The next test has as its target T4, human fractalkine (human, UniProt P78423 25-100, limits assumed).
T4 sequence (looked up): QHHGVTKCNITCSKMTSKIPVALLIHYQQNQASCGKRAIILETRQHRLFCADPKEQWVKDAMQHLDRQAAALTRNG
Description: ELISA, supernatant. On the procedure:
(§4) MaxiSorp 384 well plates were coated with 15-20 μl antigen in PBS. Recombinant purified human antigens included: MCP-1, MCP-2, MCP-3, MCP-4, IL-8, eotaxin, fractalkine, Gcp-2, DC-CK (Gcp-2 and DC-CK are also chemokines). Plates were incubated with antigen for 2 hours at 37° C. or overnight at 4° C. Non-specific sites were blocked with 80 μl/well of 1% BSA/PBS for 1 hour at room temperature. Plates were washed and 15 μl of hybridoma supernatant was added to each well and incubated for 1 hour at room temperature. Plates were washed and wells were incubated with 20 μl/well of a 1:25 000 dilution of goat anti-mouse IgG peroxidase conjugate (Jackson Catalog Number 515-036-003). Plates were incubated for 1 hour at room temperature, washed, and 20 μl/well of substrate (TMB, tetramethylbenzidine, Jackson, Catalog Number 515-036-062) was added. Reaction was allowed to proceed and stopped by addition of 20 μl/well of 2M H₂SO₄. Reactive clones were picked for further analysis. Isotyping of hybridoma supernatants was performed by antigen-dependent ELISA. Briefly, wells were coated with 50 μl of human MCP-1 (5 μg/ml) for 1 hour at 37° C. Wells were washed 4 times and blocked with PBS/1% BSA. Isotyping of hybridoma supernatants was then performed using a mouse immunoglobulin screening/isotyping kit (Zymed Laboratories, San Francisco, —CA) as recommended by the manufacturer.
Take B7: the binding result is “no binding”.
In the case of B8, the binding result was “no binding”.
Consider B9, for which the binding result is listed as “no binding”.
In the case of B10, the binding result was “no binding”.
As to B11, the binding result is recorded as “no binding”.

The target in the next test is T5, human DC-CK (human, UniProt P55774 21-89).
T5 sequence (looked up): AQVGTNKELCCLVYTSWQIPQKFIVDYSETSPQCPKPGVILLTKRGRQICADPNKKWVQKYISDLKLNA
Description: ELISA, supernatant. On the procedure: as §4
With B7, the binding result was “no binding”.
Regarding B8, the binding result is recorded as “no binding”.
For B9, the binding result is on record as “no binding”.
With B10, the binding result is “no binding”.
As to B11, the binding result is reported as “no binding”.

The target in another test is human Gcp-2 (human, UniProt P80162 38-114, limits assumed). Kind of test: ELISA, supernatant. On the procedure:
as §4
Take B7: the binding result is listed as “no binding”.
Regarding B8, the binding result was “no binding”.
Regarding B9, the binding result is on record as “no binding”.
Turning to B10, the binding result was “no binding”.
As to B11, the binding result is listed as “no binding”.

For another test, the target named is T6, human MCP-4 (human, UniProt Q99616 24-98, limits assumed).
T6 construct: also called hMCP-4
Description: ELISA, purified mAb. On the procedure: (§5) ELISA specificity assays were performed using purified monoclonal antibodies to confirm the binding specificities of the supernatant MCP-specific monoclonal antibodies described above. Antibodies were purified by Protein A affinity column chromatography, according to standard methods known in the art.
(§6) ELISA was performed as previously described in Example 1. Briefly, MaxiSorp 384 well plates were coated with 15-20 μl antigen in PBS. Recombinant purified human antigens included: MCP-1, MCP-2, MCP-3, MCP-4, IL-8, eotaxin, murine MCP-1 (JE), murine MCP-3, murine MCP-5, and rat MCP-1. All antigens, including MCP-3, were immobilized. Plates were washed and purified monoclonal antibody (10 μg/ml) was added to each well and incubated for 1 hour at room temperature. Plates were washed and wells were incubated with 20 μl/well of a 1:25,000 dilution of goat anti-mouse IgG peroxidase conjugate (Jackson Catalog Number 515-036-003). Plates were incubated for 1 hour at room temperature, washed, and 20 μl/well of substrate (, tetramethylbenzidine, Jackson, Catalog Number 515-036-062) was added. Reaction was allowed to proceed and stopped by addition of 20 μl/well of 2M H₂SO₄. Antibodies 1A1 bound specifically to hMCP-1, hMCP-2, hMCP-3, and mMCP-1. Antibodies 11K2, 4N4, 5A13, 6D21, 615, and 7H1 bound specifically to hMCP-1, hMCP-2, hMCP-3, mMCP-1, mMCP-3, and mMCP-5.
As for B7, the binding result was “no binding (tested: 10 µg/ml)”.
Still for that read-out and setting: next, B8: “no binding (tested: 10 µg/ml)”.
The same measure, in the same setting: next, B9: “no binding (tested: 10 µg/ml)”; B10: “no binding (tested: 10 µg/ml)”.
B11: the binding result was “no binding (tested: 10 µg/ml)”.

The target of the next test is T7, human IL-8 (human, UniProt P10145 28-99, limits assumed).
T7 construct: also called hIL8
Kind of test: ELISA, purified mAb. As for the experimental part: as §5, §6
For B7, the binding result is “no binding (tested: 10 µg/ml)”.
Take B8: the binding result is on record as “no binding (tested: 10 µg/ml)”.
Turning to B9, the binding result is on record as “no binding (tested: 10 µg/ml)”.
For B10, the binding result is listed as “no binding (tested: 10 µg/ml)”.
Take B11: the binding result is “no binding (tested: 10 µg/ml)”.

For the next test, the target named is T8, human eotaxin (human, UniProt P51671 24-97).
T8 construct: also called hEotaxin
Description: ELISA, purified mAb. On the procedure: as §5, §6
In the case of B7, the binding result was “no binding (tested: 10 µg/ml)”.
On to B8, for which the binding result is reported as “no binding (tested: 10 µg/ml)”.
On the same count and under the same terms, next, B9: “no binding (tested: 10 µg/ml)”.
For the molecule B10, the binding result was “no binding (tested: 10 µg/ml)”.
Regarding B11, the binding result is “no binding (tested: 10 µg/ml)”.
